Laboratory results: patent US11198713B2, “Agents modulating beta-catenin functions and methods thereof” (FOG PHARMACEUTICALS, INC., priority 2017, dated 2021)
Like-named read-outs stand apart in the source and are kept apart here. Blank lines part the entries; values can stand above or below the molecule they belong to. Numbered stars: 1 amine (or outer) side, 2 acyl side, 3 side chain; on linkers, the order of the positions; unused ones are H or OH. Bridge positions count the residues as written; N and C are the ends. Square brackets hold non-standard residues; d marks the D form. Primed or numbered codes have the meaning given here. R7 = (R)-2-(6-heptenyl)alanine, C=CCCCCC[C@@](C)(N[*:1])C(=O)[*:2]; R6 = (R)-2-(5-hexenyl)alanine, C=CCCCC[C@@](C)(N[*:1])C(=O)[*:2]; S6 = (S)-2-(5-hexenyl)alanine, C=CCCCC[C@](C)(N[*:1])C(=O)[*:2]; MG = Monomer G = RdN, acyclic alkyl-N(Alloc) stapling residue; MC = Monomer C = PyrR, Alloc-pyrrolidine stapling residue; S7 = C[C@@](CCCCCC=[*:3])(N[*:1])C(=O)[*:2]; R5 = C=CCCC[C@@](C)(N)C(=O)O; MB(7) = not defined here

How the values were obtained:
[1] = target: T1, full-length beta-catenin (Axin site) (Homo sapiens, UniProt P35222); assay: Competition fluorescence polarization assay (Axin site probe); assay type: binding; settings: competition fluorescence polarization, Table 2; read-out: in vitro FP EC50
T1 construct: 15 nM full-length beta-catenin, 20 nM FITC labeled peptide in buffer
T1 sequence (P35222 1-781): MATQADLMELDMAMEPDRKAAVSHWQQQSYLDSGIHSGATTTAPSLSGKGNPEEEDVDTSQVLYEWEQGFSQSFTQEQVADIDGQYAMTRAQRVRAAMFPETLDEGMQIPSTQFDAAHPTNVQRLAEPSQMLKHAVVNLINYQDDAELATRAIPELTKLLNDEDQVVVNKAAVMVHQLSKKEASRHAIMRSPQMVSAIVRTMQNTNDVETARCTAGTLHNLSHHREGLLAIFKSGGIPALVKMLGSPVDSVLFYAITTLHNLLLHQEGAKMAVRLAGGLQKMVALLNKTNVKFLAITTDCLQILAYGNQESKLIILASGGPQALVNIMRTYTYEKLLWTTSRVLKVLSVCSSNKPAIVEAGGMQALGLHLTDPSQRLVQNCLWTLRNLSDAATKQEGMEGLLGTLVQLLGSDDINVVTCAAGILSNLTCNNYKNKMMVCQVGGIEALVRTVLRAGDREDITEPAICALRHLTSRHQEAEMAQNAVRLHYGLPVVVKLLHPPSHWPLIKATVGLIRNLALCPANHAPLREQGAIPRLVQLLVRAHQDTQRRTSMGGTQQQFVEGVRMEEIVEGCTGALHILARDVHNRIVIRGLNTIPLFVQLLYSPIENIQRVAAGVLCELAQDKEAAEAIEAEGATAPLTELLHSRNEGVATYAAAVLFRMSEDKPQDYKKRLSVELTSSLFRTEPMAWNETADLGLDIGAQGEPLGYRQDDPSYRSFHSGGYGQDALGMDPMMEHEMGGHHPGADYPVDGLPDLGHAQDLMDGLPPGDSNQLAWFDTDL
Procedure, shortened: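 Competition FP: 15 nM full-length β-catenin pre-incubated 5 min with 20 nM FITC-labelled stapled Axin-site peptide, then titrated peptide added (3-fold series from 5 μM) for 15 min in the dark. Buffer 50 mM Tris pH 8.0, 250 mM NaCl, 2% glycerol, 0.5 mM EDTA; duplicate reads.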

[2] = target: T2, biotinylated beta-catenin (Homo sapiens, UniProt P35222); assay: Surface Plasmon Resonance (Biacore); assay type: binding
T2 sequence (P35222 1-781): T1 sequence (P35222 1-781)
Procedure: Additionally or alternatively, binding to beta-catenin may be measured by Surface Plasmon Resonance. In an exemplary assay, approximately 6 nmol dried peptide diluted in buffer (50 mM Tris pH 8.0, 300 mM NaCl, 2% glycerol, 0.5 mM TCEP, 0.5 mM EDTA, 0.005% Tween-20, 1 mg/mL CM Dextran, 0.02% w/v sodium azide) was assayed on a Biacore X100 using the Biacore Biotin CAPture Kit (GE Healthcare) and biotinylated beta-catenin. Results were analyzed using the Biacore X100 Evaluation Software. […] FPO217c (Isomer 2) bound to the armadillo domain of β-catenin with a Kd of 2 nM.

full-length beta-catenin [3] = target: T3, full-length beta-catenin (UniProt P35222 2-781, limits assumed); assay: competition FP, grade of FP EC50 (++: 100-500 nM)
T3 construct: mature; also called full-length ß-Catenin; β-catenin
T3 sequence (looked up): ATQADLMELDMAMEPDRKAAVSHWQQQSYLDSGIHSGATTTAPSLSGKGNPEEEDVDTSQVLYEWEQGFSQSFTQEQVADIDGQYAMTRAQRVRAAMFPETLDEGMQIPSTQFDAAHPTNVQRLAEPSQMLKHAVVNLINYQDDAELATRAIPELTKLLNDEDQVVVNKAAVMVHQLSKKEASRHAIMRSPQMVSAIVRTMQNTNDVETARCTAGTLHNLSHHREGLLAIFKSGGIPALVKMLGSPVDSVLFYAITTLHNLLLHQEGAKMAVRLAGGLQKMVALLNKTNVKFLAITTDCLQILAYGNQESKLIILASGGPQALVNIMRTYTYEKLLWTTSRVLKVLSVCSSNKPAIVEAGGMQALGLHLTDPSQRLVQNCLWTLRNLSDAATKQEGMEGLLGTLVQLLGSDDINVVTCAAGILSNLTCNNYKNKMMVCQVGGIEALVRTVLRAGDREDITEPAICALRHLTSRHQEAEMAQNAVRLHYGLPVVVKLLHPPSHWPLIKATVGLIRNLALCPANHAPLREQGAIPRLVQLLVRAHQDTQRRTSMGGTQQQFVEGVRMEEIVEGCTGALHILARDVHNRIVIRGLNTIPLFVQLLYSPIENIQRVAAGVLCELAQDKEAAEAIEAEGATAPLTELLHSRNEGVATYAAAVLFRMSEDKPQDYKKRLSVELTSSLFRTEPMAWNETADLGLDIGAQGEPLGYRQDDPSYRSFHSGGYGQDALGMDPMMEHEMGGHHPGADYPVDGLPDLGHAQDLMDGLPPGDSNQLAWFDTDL
Procedure: (§1) In some embodiments, a competition fluorescence polarization assay is used to assess binding of provided compounds to beta-catenin. In an exemplary procedure, solutions of provided compounds, e.g., provided stapled peptides, were prepared in a buffer (e.g., 50 mM Tris pH 8.0, 250 mM NaCl, 2% glycerol, 0.5 mM EDTA, 0.02% w/v sodium azide) using a 3-fold serial dilution from 5 µM. Probe solution (15 nM full-length ß-Catenin, 20 nM FITC labeled peptide in buffer) was prepared and incubated for a period of time, e.g., 5 minutes, and the a volume, e.g., 40 µL per well plated in suitable plate, e.g., a black polystyrene 384-well plate (Corning). Equal volume of the serial diluted peptide was added to the plate and incubated protected from light for 15 minutes prior to read. Reads were performed on a Spectramax M5 (Molecular Devices) in duplicate. Suitable probe was FITC-PEG1-PQ-S5-ILD-S5-HVRRVWR (SEQ ID NO: 1) (hydrocarbon staple formed by two S5 via olefin metathesis) and/or FITC-bA-PQ-S5-ILD-S5-HVRRVWR (SEQ ID NO: 3) (hydrocarbon staple formed by two S5 via olefin metathesis). […] Another peptide, FPO217c (Ac-AR_8ILDAHIM$B5$RVW (SEQ ID NO: 280), with N-terminal proline removed and valine replaced with isoleucine compared to FP0025c) was prepared.

full-length beta-catenin [4] = target: T3, full-length beta-catenin; assay: competition FP
Procedure: as §1

[5] = Biacore, biotinylated beta-catenin, read-out: Kd

EC50 [1]: < 100 nM
Kd ([2]; Table 2, read-out: Kd by SPR): 22 nM
Molecule: CC[C@H](C)[C@@H]1NC(=O)C2(NC(=O)[C@H](CCC(N)=O)NC(=O)[C@@H]3CCCN3C(C)=O)CN(C2)C(=O)OCC=CCCCC[C@](C)(C(=O)N[C@@H](Cc2c[nH]cn2)C(=O)N[C@H](C(=O)N[C@@H](CCCNC(=N)N)C(=O)N[C@@H](CCCNC(=N)N)C(=O)N[C@H](C(=O)N[C@@H](Cc2c[nH]c3ccccc23)C(=O)N[C@@H](CCCNC(=N)N)C(N)=O)C(C)C)C(C)C)NC(=O)[C@H](CC(=O)O)NC(=O)[C@H](CC(C)C)NC1=O (single isomer, unassigned) [FP0725c, Ac-P-Q-MA-I-L-D-R6-H-V-R-R-V-W-R-NH2]

EC50 [1]: 100 to 500 nM
Kd ([2]; Table 2, read-out: Kd by SPR): 43 nM
Molecule: CC[C@H](C)[C@@H]1NC(=O)[C@@](C)(NC(=O)[C@H](CCC(N)=O)NC(=O)[C@@H]2CCCN2C(C)=O)CCCCCC=CCN2CC(C(=O)N[C@@H](Cc3c[nH]cn3)C(=O)N[C@H](C(=O)N[C@@H](CCCNC(=N)N)C(=O)N[C@@H](CCCNC(=N)N)C(=O)N[C@H](C(=O)N[C@@H](Cc3c[nH]c4ccccc34)C(=O)N[C@@H](CCCNC(=N)N)C(N)=O)C(C)C)C(C)C)(C2)NC(=O)[C@H](CC(=O)O)NC(=O)[C@H](CC(C)C)NC1=O (single isomer, unassigned) [FP0738a, Ac-P-Q-S7-I-L-D-MA-H-V-R-R-V-W-R-NH2]

Kd [2, 5]: ~22 nM
Molecule: CC[C@H](C)[C@@H]1NC(=O)C2(NC(=O)[C@H](CCC(N)=O)NC(=O)[C@@H]3CCCN3C(C)=O)CN(C2)C(=O)OCC=CCCCC[C@](C)(C(=O)N[C@@H](Cc2c[nH]cn2)C(=O)N[C@H](C(=O)N[C@@H](CCCNC(=N)N)C(=O)N[C@@H](CCCNC(=N)N)C(=O)N[C@H](C(=O)N[C@@H](Cc2c[nH]c3ccccc23)C(=O)N[C@@H](CCCNC(=N)N)C(N)=O)C(C)C)C(C)C)NC(=O)[C@H](CC(=O)O)NC(=O)[C@H](CC(C)C)NC1=O (single isomer, unassigned) [FP-0725c, Ac-P-Q-Az-I-L-D-R6-H-V-R-R-V-W-R-NH2]

Kd [2, 5]: ~34 nM
Molecule: CC[C@H](C)[C@@H]1NC(=O)[C@@]2(NC(=O)[C@H](CCC(N)=O)NC(=O)[C@@H]3CCCN3C(C)=O)CCN(CC=CCCCC[C@](C)(C(=O)N[C@@H](Cc3c[nH]cn3)C(=O)N[C@H](C(=O)N[C@@H](CCCNC(=N)N)C(=O)N[C@@H](CCCNC(=N)N)C(=O)N[C@H](C(=O)N[C@@H](Cc3c[nH]c4ccccc34)C(=O)N[C@@H](CCCNC(=N)N)C(N)=O)C(C)C)C(C)C)NC(=O)[C@H](CC(=O)O)NC(=O)[C@H](CC(C)C)NC1=O)C2 (single isomer, unassigned) [FP-0745a]

Kd [2, 5]: ~13 nM
Molecule: CC[C@H](C)[C@@H]1NC(=O)[C@](C)(NC(=O)[C@H](CCC(N)=O)NC(=O)[C@@H]2CCCN2C(C)=O)CCC=CCOC(=O)N2CC[C@](C(=O)N[C@@H](Cc3c[nH]cn3)C(=O)N[C@H](C(=O)N[C@@H](CCCNC(=N)N)C(=O)N[C@@H](CCCNC(=N)N)C(=O)N[C@H](C(=O)N[C@@H](Cc3c[nH]c4ccccc34)C(=O)N[C@@H](CCCNC(=N)N)C(N)=O)C(C)C)C(C)C)(C2)NC(=O)[C@H](CC(=O)O)NC(=O)[C@H](CC(C)C)NC1=O (single isomer, unassigned) [FP-0765c, Ac-P-Q-R4-I-L-D-PR-H-V-R-R-V-W-R-NH2]

Kd [2, 5]: ~7 nM
Molecule: CC[C@H](C)[C@@H]1NC(=O)[C@](C)(NC(=O)[C@H](CCC(N)=O)NC(=O)[C@@H]2CCCN2C(C)=O)CCCC=CCOC(=O)N2CC[C@](C(=O)N[C@@H](Cc3c[nH]cn3)C(=O)N[C@H](C(=O)N[C@@H](CCCNC(=N)N)C(=O)N[C@@H](CCCNC(=N)N)C(=O)N[C@H](C(=O)N[C@@H](Cc3c[nH]c4ccccc34)C(=O)N[C@@H](CCCNC(=N)N)C(N)=O)C(C)C)C(C)C)(C2)NC(=O)[C@H](CC(=O)O)NC(=O)[C@H](CC(C)C)NC1=O (single isomer, unassigned) [FP-0766c, Ac-P-Q-R5-I-L-D-PR-H-V-R-R-V-W-R-NH2]

Kd [2, 5]: ~14 nM
Molecule: CC[C@H](C)[C@@H]1NC(=O)[C@@](C)(NC(=O)[C@H](CCC(N)=O)NC(=O)[C@@H]2CCCN2C(C)=O)CCCC=CCCC[C@@](C)(C(=O)N[C@@H](Cc2c[nH]cn2)C(=O)N[C@H](C(=O)N[C@@H](CCCNC(=N)N)C(=O)N[C@@H](CCCNC(=N)N)C(=O)N[C@H](C(=O)N[C@@H](Cc2c[nH]c3ccccc23)C(=O)N[C@@H](CCCNC(=N)N)C(N)=O)C(C)C)C(C)C)NC(=O)[C@H](CC(=O)O)NC(=O)[C@H](CC(C)C)NC1=O (single isomer, unassigned) [FP-0787c]

FP EC50 (full-length beta-catenin [3]): 100 to 500 nM
EC50 (full-length beta-catenin [4]): 380 nM
B1: FP0782c (peptide)
peptide: Ac-PQ[MG]ILD[R5]HVRRVWR-NH2
modifications: staple 3-7; also: carbamate staple (-N(R')-C(O)-O-) by ring-closing olefin metathesis

FP EC50 (full-length beta-catenin [3]): 100 to 500 nM
EC50 (full-length beta-catenin [4]): 150 nM
B2: FP0768c (peptide)
peptide: Ac-PQ[R7]ILD[MC]HVRRVWR-NH2
modifications: staple 3-7; also: carbamate staple (-N(R')-C(O)-O-) by ring-closing olefin metathesis
notes: also called R7/PR

FP EC50 (full-length beta-catenin [3]): 100 to 500 nM
EC50 (full-length beta-catenin [4]): 110 nM
Molecule: Ac-PQ[MC]ILD[R6]HVRRVWR-NH2 (staple 3-7) [FP0745c]

FP EC50 (full-length beta-catenin [3]): 100 to 500 nM
EC50 (full-length beta-catenin [4]): 460 nM
Molecule: Ac-PQ[S6]ILD[MB(7)]HVRRVWR-NH2 (staple 3-7; reading uncertain) [FP0761c]

FP EC50 (full-length beta-catenin [3]): 100 to 500 nM
EC50 (full-length beta-catenin [4]): 115 nM
Molecule: Ac-PQ[S7]ILD[MB(7)]HVRRVWR-NH2 (staple 3-7; reading uncertain, also called S7/PS) [FP0763c]

FP EC50 (full-length beta-catenin [3]): 100 to 500 nM
EC50 (full-length beta-catenin [4]): 110 nM
B3: FP0767c (peptide)
peptide: Ac-PQ[R6]ILD[MC]HVRRVWR-NH2
modifications: staple 3-7; also: carbamate staple (-N(R')-C(O)-O-) by ring-closing olefin metathesis
notes: also called R6/PR
